Experimental data published in publication PMC3498381, “Isolated Toll-like Receptor Transmembrane Domains Are Capable of Oligomerization” (PLoS ONE, 2012).
No end group written: not given here.

What was measured:
[1] = system: homotypic TMD-TMD interaction (ToxR / ctx promoter / β-galactosidase reporter in FHK12 E. coli); assay: Homotypic ToxR reporter assay (β-galactosidase); assay type: cell-based; settings: β-galactosidase Miller units normalized to GpA signal and expression levels; FHK12 E. coli; 3 replicates with >6 measurements each, N in table
Experimental: . Various plasmid constructs for this assay make it possible to monitor both homotypic and heterotypic interactions that are driven by TMD-TMD association (Fig. S1).
We first investigated homotypic interactions because the majority of the TLR family members function as homodimers. […] This ΔTM construct consists of the same maltose binding protein and ToxR domain, but lacks a TMD for proper membrane insertion (Fig. S2). Statistical analysis using the Tukey-Kramer test was performed to analyze any significant differences between all possible pairs of average interaction potentials (Table S2). […] Among the TLRs, no discernable differences in grouping based on statistical analysis at p = 0.05 were indicated as all receptors belonged to multiple groups, except for TLR1, which with the lowest interaction potential among the family of receptors only existed in one group (Table S1).
Figure 2 Toll-like Receptor Transmembrane Domain Homotypic Interactions. (A) The ToxR assay was used to study homotypic interactions of the TLR TMDs. A chimeric protein expressing the TMD of interest was monitored through β-galactosidase activity. In all cases, we saw that the TLRs have interaction potential solely from TMD-TMD interactions. Each TLR TMD interaction measurement analysis was performed on 3 technical replicates with >6 measurements for each replicate. Error bars depict the standard error of the mean (n – Table S1). Western blots staining for MBP were performed to monitor expression levels of the constructs – (B) chimeric maltose binding protein expression, (C) endogenous maltose binding protein expression. All samples were normalized to the GpA signal and expression levels.
Briefly, the ToxR plasmids containing the TMD of interest (200 ng) were transformed into chemically competent FHK12 E. coli (200 µL) by incubating on ice for 30 min, heat shock at 42°C for 90 s, incubation on ice for 2 min, and addition of SOC media (800 µL) followed by incubation with shaking for 1 h at 37°C. This transformation mixture (50 µL) was then spread on LB agar plates containing cholaramphenicol (30 µg/mL) and ampicillin (100 µg/mL) and grown overnight at 37°C. Single colonies were selected from the plates in triplicate and added to 5 mL of LB media containing cholaramphenicol (30 µg/mL), ampicillin (100 µg/mL), and arabinose (0.0025%). These cultures were incubated overnight (16–20 h) with shaking at 37°C. The β-galactosidase activity was monitored using a Beckman Coulter DTX 880 plate-reader. First 5 µL of each culture was plated >6 times in a clear 96-well flat bottom culture plate (Sarstedt) containing 100 µL of Z-buffer/chloroform (1% β-mercaptoethanol, 10% chloroform, 89% Z buffer: […], 10 mM potassium chloride, 1 mM magnesium sulfate, pH 7.0). The cell densities of each well were recorded by measuring the OD595. Bacteria were lysed by the addition of 50 µL Z-buffer/SDS (1.6% sodium dodecyl sulfate w/v in Z-buffer) and shaking at 28°C for 10 min. Enzymatic activity was measured by adding 50 µL of Z-buffer/ortho-Nitrophenyl-β-[…] (ONPG) (0.4% ONPG w/v in Z-buffer) and monitoring the reaction at 405 nm for a period of 20 min at 30 s intervals. Miller units were calculated using the equation: [drawing 1]
Western blotting was performed with antiserum recognizing the maltose-binding protein moiety of the constructs (Abcam). Data were normalized to GpA Miller Units and protein expression levels using ImageJ (NIH) as reported previously.

[2] = Circular dichroism, helical content by CDNN; assay type: physicochemical; settings: CD, CDNN analysis; 5-10 µM peptide, 10 mM C14-betaine micelles, 20 mM HEPES pH 7.4, 25°C, average of 9 scans
Experimental: Figure 4 Circular Dichroism Spectra of TLR1, TLR2, and TLR6 Synthetic TMD Peptides. Far-UV spectra of the synthetic TMD peptides at concentrations ranging from 5–10 µM in the presence of 10 mM C14-betaine detergent micelles. Spectra were collected at 25°C with a step size of 1 nm and are the average of 9 scans. All peptides had helical content >99% (Table S11) as determined using CDNN [63].
CD measurements were performed on a ChirascanPlus spectrometer (Applied Photophysics) using a 1.0 mm path length quartz cuvette. Peptides and C14-Betaine (3-(N,N-Dimethylmyristylammonio)propanesulfonate: Sigma) were co-dissolved in 2,2,2-trifluoroethanol. The organic solvent was removed by drying to a thin film using N2 and further dried overnight under reduced pressure to remove all traces of TFE. Samples were resusupended in a 20 mM HEPES buffer, pH 7.4, yielding a final C14-Betaine concentration of 10 mM. Peptide concentrations were determined using Beer-Lambert law with coumarin absorbance at 400 nm using ε400 of 39,300 M^−1 cm^−1 [62] and FITC absorbance at 495 nm using ε495 of 68,000 M^−1 cm^−1 (Invitrogen). Peptides were prepared such that final concentrations were in the 5–10 µM range. All CD spectra were measured at 25°C with a step size of 1 nm and are reported as the average of 9 scans. Data were not collected below 200 nm due to the high voltage and background noise from the C14-Betaine buffer. Helical content was determined using CDNN [63].

| Substance | Mean homotypic TMD interaction (ToxR) [1] | Helix content, 200-260 nm [2] [%] | Helix content, 205-260 nm [2] [%] | Helix content, 210-260 nm [2] [%] |
| --- | --- | --- | --- | --- |
| TLR6*: TLR6 TMD chimera with nonfunctional ToxR* domain (negative phenotype) (GNRASITLLIVTIGATMLVLAVTVTSLCIYLGSLIN; also: fused to non-functional ToxR* (S87H) and maltose binding protein, ends not given here) | 0.5764 | 99.90 | 100.00 | 100.00 |
| TLR1*: TLR1 TMD chimera with nonfunctional ToxR* domain (negative phenotype) (GNRASITLLIVTIVATMLVLAVTVTSLCSYLGSLIN; also: fused to non-functional ToxR* (S87H) and maltose binding protein, ends not given here) | 0.4775 | 99.70 | 99.90 | 99.90 |
| TLR2*: TLR2 TMD chimera with nonfunctional ToxR* domain (negative phenotype) (GNRASALVSGMCCALFLLILLTGVLCGSLIN; cysteine pairing not given here; also: fused to non-functional ToxR* (S87H) and maltose binding protein, ends not given here) | 0.7829 | 99.80 | 99.90 | 99.90 |
